In series [1] the test system is PARP1. In words: spFRET microscopy. Conditions: buffer, salt, pH and temperature of binding assays not given in the material (Methods 4.4-4.7 empty).
For series [2], the target named is fluorescently labeled mononucleosomes assembled from octamers of recombinant human histones and DNA containing the 147 bp nucleosome positioning sequence 603 (human). In words: spFRET microscopy; as a2 but nucleosomes N(13, 91) (1 nM) preincubated 15 min with EGCG (0.8 µM) before PARP1 (20 nM), or PARP1 preincubated with EGCG; TB150 buffer, room temperature; then NAD+ (20 µM), 45 min.

Series [3] has the same target. In words: spFRET microscopy; nucleosomes N(13, 91) (1 nM; Cy3/Cy5 on nucleosomal DNA) with PARP1 (20 or 50 nM), 30 min at room temperature in TB150 buffer (20 mM Tris-HCl pH 7.9, 5 mM MgCl2, 150 mM KCl, 1 mM β-ME); then NAD+ (20 µM), 45 min; no EGCG.

For the substance N(13, 91) nucleosome, the binding signal (% nucleosomes bound) came to 65 in series [1] (20 nM PARP1, no EGCG) and 67 in series [1] (20 nM PARP1 added to nucleosomes preformed with 0.8 uM EGCG).

On to “human poly(ADP-ribose) polymerase 1 fused with hexahistidine tag at the N-terminus (from UniProt P09874 1-1014) (enzyme)”, for which, in series [2], the percent of detected particles in the EGCG–nucleosome–PARP1 complex at 20 nM PARP1 and 0.8 µM EGCG stood at 67%. For the same substance, the percent of nucleosomes in the complex at 20 nM PARP1 in series [3] was found to be 65%.

The values are drawn from publication PMC10532227.
